The text below walks through data of patent US20210040184A1.

Assay [1] concerns the target Clade C DU172.17 gp120 protein (HIV-1 Clade C, DU172.17). The experiment in a line: BLI (Octet), IgG on anti-hIgG Fc sensor, gp120 analyte, 1:1 fit.
In assay [2] the target is Clade B BaL gp120 protein (HIV-1 Clade B, BaL). The assay is described as above.
Assay [3] addresses HIV-1 X1632_S2_B10 envelope (Env) on Env.IMC.LucR virus (HIV-1 clade G). As to the kind of experiment: cell-based or functional assay.
Assay [4] has as its target HIV-1 CAP45.2.00.G3 envelope (Env) on Env.IMC.LucR virus (HIV-1 clade C). The experiment in a line: cell-based or functional assay.
The target of assay [5] is HIV-1 REJO4541.67 envelope (Env) on Env.IMC.LucR virus (HIV-1 clade B). As to the kind of experiment: cell-based or functional assay.
The target of assay [6] is HIV-1 CNE20 envelope (Env) on Env.IMC.LucR virus (HIV-1 clade BC). As to the kind of experiment: cell-based or functional assay.
Assay [7] addresses HIV-1 DU172.17 envelope (Env) on Env.IMC.LucR virus (HIV-1 clade C). As to the kind of experiment: cell-based or functional assay.
In assay [8] the target is HIV-1 DU422.1 envelope (Env) on Env.IMC.LucR virus (HIV-1 clade C). As to the kind of experiment: cell-based or functional assay.
For assay [9], the target named is HIV-1 AC10.0.29 envelope (Env) on Env.IMC.LucR virus (HIV-1 clade B). The experiment in a line: cell-based or functional assay.

Consider 3BNC117 (antibody), for which the Kd amounted to 95.8 nM in [1] and 3.29 nM in assay [2]. In addition, the values for the fold (KD vs average of 4 runs of L1A2) in assay [1] and in [2] were 3.77 fold and 6.07 fold, respectively. Further, the koff in [1] came to 0.00457 s⁻¹; in assay [2] it was 0.000291 s⁻¹. For the same substance, the kon in [1] was found to be 47700 M⁻¹ s⁻¹; in assay [2], 88500 M⁻¹ s⁻¹. In addition, the IC50 of virus neutralization (TZM-BL, luciferase) was 31.2 µg/mL in [3]; 2.7 µg/mL in assay [4]; 0.07 µg/mL in assay [5]; over 50 µg/mL in assay [6]; 1.25 µg/mL in assay [7]; over 50 µg/mL in assay [8]. The IC50 of virus neutralization (TZM-BL, luciferase) in [9] is 11 µg/mL.

For orientation: Kd means the constant that tells how readily two partners part at equilibrium. A low value points to tighter binding. The term koff denotes the first-order rate constant of dissociation. The term kon denotes a measure of how fast the partners come together. Higher therefore signals faster complex formation.
